According to the nanobody polyreactivity screen of Harvey et al. (2022):

Experiment: yeast display, Sf9 membrane polyspecificity reagent, FACS + sequencing; frameworks hold sequencing errors
How it was run: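 Nanobodies from a synthetic yeast display library (Saccharomyces cerevisiae BJ5465), induced 36–48 hours with galactose, were stained 1 hour at 4 °C with 10% biotinylated, detergent-solubilized Sf9 membrane reagent, enriched on streptavidin microbeads, then FACS-sorted. Anti-HA (expression) and streptavidin (reagent binding) fluorescence set low and high (top ~1%) gates. Polyreactivity labels come from the gate of origin. Genes were colony-PCR amplified, MiSeq 2 × 250 sequenced and filtered by CDR length.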

Sequence | polyreactivity (PSR sort gate)
QVQLVESGGGLVQEGGSLRLSCAATGLTFVYYEMGWYRQAPGKERELVADITYIGTSTYYADSVKGRFTISLDNAKNTVYLQMNSLKPEDTEVYYCAAPFPIRSGESWRTDLGYDYWGQGTQVTVSS | low polyreactivity
QVQLVESGGGLVQAGGSLRLSCAASGVIFYRYAMGWYRQAPGKERELVAAITRSGGTTYYADSVKGRFTISRDNAKNTVYLQMNSLKPEDTAVYYCAARVTPGRNGGGYWGQGTQVTVSS | high polyreactivity
QVQLVESGGGLVQAGGSLRLRCAASGSIFRRYAMGRYRQAPGKERELVATITSTDSTNYADSVKGRFTISRDNAKNTVYLQMNSLKPEDTAVYYCAKRPYDYRLNSEYYYWGQGTQVTVSS | low polyreactivity
QVQLGESGGGLVQAGGSLRLSCAASGRIFRYYAMGWYRQAPGKERELVAAISSSGGSTYYADSVKGRFTISRDNAKNTVYLQMNSLKPEDTAVYYCNTVGSVGKKRDYWGQGTQVTVSS | high polyreactivity
QVQLVESGGGLVQAGGSLRLSCAASGSTFKKYVMGWYRQAPGKERELVAAISSTGRTNYADSVKGRFTISRDNAKNTVYLQMNSLKPEDTAVYYCAKRYRKYSLGPPGNDYWGQGTQVTVSS | high polyreactivity
QVQLVESGGGLVQAGGSLRLSCAASGSIFSANAMGWYRQAPGKERELVASITGDGSTNYADSVNGRFTISRDNAKNTVYLQMNSLKPEDTAVYYCAVDRGRRGMDYWGQGTQVTVSS | low polyreactivity
QVQLVESGGGLVQAGGSLRLSCAASGLTFSAYTMGWYRQAPGKERELVAAIDRSGSTYYADSVKGRFTISRDNAKNTVYLQMNSLKPEDTAVYYCAADAVRKDLFDYWGQGTQVTVSS | low polyreactivity
LVQLVESGGGLVQAGGSLRLSCAASGRIFVGYAMGWFRQAPGKERELVAAISRRAGRTYYADSVKGRFTLSRDNAKNTVYLQMNSLKPEDTPVYYCIAPRYYPKAGFDYWGQGTQVTVSS | high polyreactivity
QVQLVESGGGLVQAGGSLRLSSAASGSNFSRNTMGWYRQAPGKERELVAAITRGGSTDYADSVKGRFTISRDNAKNTVDLQMNSRKPEDTAVYYCAKKNPGWGKFDYWGQGTQVTVSS | low polyreactivity
QVQLVESGGGLVQAGGSLRLSCAASGSIYRQYAMGWSRPAPGKERELVAASRRGTSTYYADSVKGRFTLSRDNAKNTVYLHMNSLKPDDSAVYYCAADTSWYSWWFDYWGQGTQVTVSS | low polyreactivity
QVQLVESGGGLFQAGGSLRLSCAASGRIFSYNNMGWYRQAPGKERELVAAISTSGGSTYYADSVKGRFTLSRDNAKNTVYLQMNSLKPEDTAVYYCNTVWTFRTSTNYDYWGQVTQVTVSS | low polyreactivity
QVQMQERAAWCRRAGSLRLSCAASGNITDYYFMSWYRQAPGKERELVAAIAPGSNTYYADSVKGRFTISRDNAKNTVYLQMNSLKPEDTAVCFCAANSTQYTWFDYWGQGTQVPVSS | low polyreactivity
QVQLVESGGGLVQAGGSLRLSCAASGLTFPPYAMGWYRQAPGKERELVAAISWNGGNTYYADSVKGRFTISRDNAKNTVYLQMNSLKPEDTAVYYCAAKRGTQGMYYWGQGTQVTVSS | high polyreactivity
QVQLVESGGGLVQAGGSLRLSCAASGSTFWYNAMGWYTQAPGKERELVAAITWTGDGTYYADSVKGRFTISRDNAKNTVYLQMNSLKPEDTAVYYCAAAYFQWSTSIVGLDAWYDYWGQGTQVTVSS | low polyreactivity
QVQLVESGGGLVQAGGSLRLTCAASGSTFFPNDMGWYRQAPGKERELVDAISWRGGNTYADSVKGRFTISRDNAKNTVLLQMNSLKPEDTAVYYCAADVEWTSRGSYYRYYYWGQGTQVTVSS | low polyreactivity
QVQLVESGGGLVQAGGSLRLSCAASGRIYWWYAMGGSRQEPGKERELVAGISWSGGSTYYADSVKGRFTISRDNAKNTVYLQMNSLKPEDSAVYYCNAQYASGRSYFFYWHRFDYGGQGTQVTVSS | high polyreactivity
QVQLVESGGGLVQAGGRLRLSCAASGITFLNYAMGWYRPAPRKERELVAAISWSGGRTYYADSVKGRFTISRDNAKNTVFLQMNSLKPEDNAVYYCAADRGVNSYGYWGQGTQVTVSS | high polyreactivity
QVQRVESGGGLVQAGGSLRLSCAASGSIFNSNAMGWYRLAHGKERELVAAINWRGGSTYYADSVKGRFTISRDNAKNTVYLQMNSLKPEDSAVYYCAAVGWFHDYYWGQGTQLTVSS | high polyreactivity
QVQLVESGGGLVQAGGSLRLSCAASGSTFRVYAMGWYRQAPGKERELVAAISGSGGSTYYADSVKGRFTISRDNAKNTVYLQMNSLKPEDTAVYYCAGRSWYTEYYWGQGTQVTVSS | high polyreactivity
QVQLVESGGGLVQAGGSLRLSCAASGRTFYGYAMGWSRPAPGKERELVAAISTGGSTSYADSVKGRFTISRDNAKNTVYLQMNSLKPEDTAVYYCAAVYYLTDWYGVWYSFDYWGQGTQVTVSS | low polyreactivity
QGQLVESGGGLVQAGGSLRLSCAASGSTFGKYVMGWYRQAHGKERELVAAISRSGGSTYYADSVKGRFTISRDNAKNTVYLQLNSLKPDDTAVYYCAAYNGITSHLRFDYWGQGTQVTVSS | high polyreactivity
QVQLVESGGGLVQAGGSLRLSCAASGSICVRNAMGWYRQAPGKERELVAADSVKGRFTISRDNAKNTVYLQMNSLKPEDTAVYYCNKAYIIRRGPIVYYGFDYWGQGTQVTVSS | low polyreactivity
QVQLVESGGGLVQAGGSLRLSSAASGRTLVNYAMGCYRQAPGKERELVAAISYSGGSTYYADSVKGRFTISRDYAKNTVYLQMNSLKPEDTAVYYCAAYYYQRYDYWGQGTQVTVSS | high polyreactivity
QVQLVESGGGLVQAGGSLRLSCAASGSIFGAYAMGWYRQAPGKERELVAAITSGGSTNYADSVKGRFTISRDNAKNTVYLQMNSLKPEDTAVYYCAARRRYAKFRYDYWGQGTQVTVSS | high polyreactivity
QVQLVESGGGLVQAGGSLRLSCAASGSTFLGNAMGWYRQAPGKERELVAAISGRGGSTYYADSVKGRFTISRDNAKNTVYLQMNSLKPEDTAVYYCAAPLYHYVQYGYWGQGTQVTVSS | high polyreactivity
QVQLVESGGGLVQAGGSLRLSCAPSGSIFDCNAMGWYRQAPGKERELVAAISVSGGSTYYADSVKGRFTISRDNAKNTVYLQMNSLKPEDKAVYYCAAETWTDGWYYDYWGQGTQVTVSS | high polyreactivity
QVQLVESGGGLVQAGGSLRLSCAASGFILVGYAMGWYRKAPGKERELVAAISSGDSTNYADSVKGRFTISRDNAKNSVYLQMNSLKPEDTAVYYCAARFIFWVYDYDYWGQGTQVTLSS | low polyreactivity
QVQLVESGGGLVQAGGRLRISCAASGTIFAYALGWYRPAPGKERELVAGISRRGGSTYYADSVKGRFTISRDNAKKTVYLQMKSLKPEDTAVYYCAADYYTLYPVYIKRYGYWGQGTQVTVSA | high polyreactivity
QVQLVESGGGLVQAGGSLRLSCAASGYNFARYAMGWDRQAPGKEREFVAAITWSGGTTYYADSVKGRFTISRDNAKNTVYLQMNRLKPEDTAVYYCAARGYYTEAASSKRGNYWGQGTQVTVSS | high polyreactivity
QVKLVESGAGLVQAGGSLRLSCAASALSFYYYAMGWYRQAPGKERELVASITGGDSTNYADSVKGRFTISRDNAKNTVYLQMNSLKPEETAVYYCADEFYVSSYGYRTYDYYYWGQGTQVTVSS | low polyreactivity
